T1: Pex13, P80667
T1 sequence (P80667 295-386, looked up): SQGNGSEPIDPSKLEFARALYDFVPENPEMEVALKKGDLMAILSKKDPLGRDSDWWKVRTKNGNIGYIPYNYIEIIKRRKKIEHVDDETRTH

T2: Myo5, Q04439
T2 sequence (Q04439 1072-1160, looked up): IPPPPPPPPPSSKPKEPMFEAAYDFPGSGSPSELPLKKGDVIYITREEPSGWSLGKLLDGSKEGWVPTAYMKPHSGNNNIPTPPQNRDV

T3: Bud14, P27637
T3 sequence (P27637 247-328, looked up): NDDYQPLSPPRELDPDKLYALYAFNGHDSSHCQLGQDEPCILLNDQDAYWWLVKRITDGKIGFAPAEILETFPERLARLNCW

T4: Cyk3, Q07533
T4 sequence (Q07533 1-83, looked up): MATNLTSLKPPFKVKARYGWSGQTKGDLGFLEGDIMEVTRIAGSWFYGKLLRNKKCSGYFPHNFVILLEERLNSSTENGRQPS

T5: Cdc25, P04821
T5 sequence (P04821 50-136, looked up): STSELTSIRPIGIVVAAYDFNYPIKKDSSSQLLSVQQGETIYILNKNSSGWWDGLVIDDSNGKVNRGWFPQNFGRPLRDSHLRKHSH

T6: Bzz1-2, P38822
T6 sequence (P38822 568-633, looked up): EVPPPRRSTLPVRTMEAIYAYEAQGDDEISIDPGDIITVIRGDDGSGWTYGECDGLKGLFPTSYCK

T7: Abp1, P15891
T7 sequence (P15891 535-592, looked up): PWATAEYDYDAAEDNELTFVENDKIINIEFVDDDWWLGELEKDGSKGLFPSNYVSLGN

T8: Hof1, Q05080
T8 sequence (Q05080 590-669, looked up): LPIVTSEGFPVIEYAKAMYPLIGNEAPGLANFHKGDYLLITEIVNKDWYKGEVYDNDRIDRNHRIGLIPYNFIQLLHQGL

T9: Fus1, P11710
T9 sequence (P11710 432-512, looked up): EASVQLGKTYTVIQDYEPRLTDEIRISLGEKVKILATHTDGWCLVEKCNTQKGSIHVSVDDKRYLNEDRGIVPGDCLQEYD

T10: Hse1, P38753
T10 sequence (P38753 208-285, looked up): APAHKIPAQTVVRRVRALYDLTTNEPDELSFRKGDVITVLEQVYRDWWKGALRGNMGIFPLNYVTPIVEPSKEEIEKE

T11: Sla1-3, P32790
T11 sequence (P32790 344-424, looked up): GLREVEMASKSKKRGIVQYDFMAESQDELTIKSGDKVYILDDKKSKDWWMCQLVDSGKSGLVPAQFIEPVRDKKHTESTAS

T12: Lsb1, P53281
T12 sequence (P53281 45-122, looked up): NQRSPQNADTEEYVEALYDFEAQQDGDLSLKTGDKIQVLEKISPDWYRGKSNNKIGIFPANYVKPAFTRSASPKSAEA

T13: Lsb4, P32793
T13 sequence (P32793 402-468, looked up): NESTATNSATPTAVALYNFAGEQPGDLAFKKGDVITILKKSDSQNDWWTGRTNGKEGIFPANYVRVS

T14: Bbc1, P47068
T14 sequence (P47068 1-78, looked up): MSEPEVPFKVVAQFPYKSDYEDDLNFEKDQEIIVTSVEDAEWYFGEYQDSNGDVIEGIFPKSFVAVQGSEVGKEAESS

T15: Nbp2, Q12163
T15 sequence (Q12163 103-180, looked up): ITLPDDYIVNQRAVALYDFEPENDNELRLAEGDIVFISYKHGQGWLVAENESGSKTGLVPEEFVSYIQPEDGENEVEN

T16: Boi1, P38041
T16 sequence (P38041 1-86, looked up): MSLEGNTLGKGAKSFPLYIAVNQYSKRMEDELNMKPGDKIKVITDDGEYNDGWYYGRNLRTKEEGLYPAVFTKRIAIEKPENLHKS

T17: Lsb3, P43603
T17 sequence (P43603 385-451, looked up): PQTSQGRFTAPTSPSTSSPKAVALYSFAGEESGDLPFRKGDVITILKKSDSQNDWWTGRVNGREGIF

T18: Boi2, P39969
T18 sequence (P39969 32-116, looked up): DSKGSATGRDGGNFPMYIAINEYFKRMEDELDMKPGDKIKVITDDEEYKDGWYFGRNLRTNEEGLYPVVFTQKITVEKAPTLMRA

T19: Bzz1-1, P38822
T19 sequence (P38822 478-572, looked up): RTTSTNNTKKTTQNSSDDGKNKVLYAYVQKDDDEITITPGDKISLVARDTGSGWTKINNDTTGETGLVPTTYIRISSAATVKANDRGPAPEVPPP

T20: Pin3, Q06449
T20 sequence (Q06449 53-122, looked up): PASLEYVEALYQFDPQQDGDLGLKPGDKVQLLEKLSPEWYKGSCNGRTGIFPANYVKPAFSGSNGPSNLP

T21: Sla1-2, P32790
T21 sequence (P32790 60-140, looked up): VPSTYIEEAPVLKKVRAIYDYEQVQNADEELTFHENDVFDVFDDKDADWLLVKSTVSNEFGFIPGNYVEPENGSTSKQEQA


Experiments:
Experiment in all cases: SPOT array
Pex13, P80667 = target: T1, Pex13, P80667; conditions: median of control spots 1341
Rvs167, P39743 = conditions: median of control spots 2707
Sequence of Rvs167, P39743 (P39743 419-482): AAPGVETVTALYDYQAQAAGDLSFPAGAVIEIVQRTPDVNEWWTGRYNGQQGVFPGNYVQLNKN

Myo5, Q04439 = target: T2, Myo5, Q04439; conditions: median of control spots 471
Bud14, P27637 = target: T3, Bud14, P27637; conditions: median of control spots 956
Cyk3, Q07533 = target: T4, Cyk3, Q07533; conditions: median of control spots 1451
Cdc25, P04821 = target: T5, Cdc25, P04821; conditions: median of control spots 969
Bzz1-2, P38822 = target: T6, Bzz1-2, P38822; conditions: median of control spots 4538
Abp1, P15891 = target: T7, Abp1, P15891; conditions: median of control spots 935
Hof1, Q05080 = target: T8, Hof1, Q05080; conditions: median of control spots 4086
Fus1, P11710 = target: T9, Fus1, P11710; conditions: median of control spots 1200
Hse1, P38753 = target: T10, Hse1, P38753; conditions: median of control spots 1727
Sla1-3, P32790 = target: T11, Sla1-3, P32790; conditions: median of control spots 5475
Lsb1, P53281 = target: T12, Lsb1, P53281; conditions: median of control spots 388
Sho1, P40073 = conditions: median of control spots 1148
Sequence of Sho1, P40073 (P40073 287-367): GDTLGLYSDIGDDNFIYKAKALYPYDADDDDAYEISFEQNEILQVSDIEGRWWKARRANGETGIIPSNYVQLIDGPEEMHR

Myo3, P36006 = conditions: median of control spots 468
Lsb4, P32793 = target: T13, Lsb4, P32793; conditions: median of control spots 397
Bem1-2, P29366 = conditions: median of control spots 4347
Sequence of Bem1-2, P29366 (P29366 139-227): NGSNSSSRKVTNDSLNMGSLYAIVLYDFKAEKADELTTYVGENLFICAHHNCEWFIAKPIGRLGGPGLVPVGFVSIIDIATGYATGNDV

Bbc1, P47068 = target: T14, Bbc1, P47068; conditions: median of control spots 796
Bem1-1, P29366 = conditions: median of control spots 4282
Sequence of Bem1-1, P29366 (P29366 55-141): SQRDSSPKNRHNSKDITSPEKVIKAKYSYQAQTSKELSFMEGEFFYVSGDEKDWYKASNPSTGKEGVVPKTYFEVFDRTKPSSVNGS

Nbp2, Q12163 = target: T15, Nbp2, Q12163; conditions: median of control spots 357
Boi1, P38041 = target: T16, Boi1, P38041; conditions: median of control spots 1162
Lsb3, P43603 = target: T17, Lsb3, P43603; conditions: median of control spots 406
Boi2, P39969 = target: T18, Boi2, P39969; conditions: median of control spots 1161
Bzz1-1, P38822 = target: T19, Bzz1-1, P38822; conditions: median of control spots 4446
Pin3, Q06449 = target: T20, Pin3, Q06449; conditions: median of control spots 2171
Sla1-2, P32790 = target: T21, Sla1-2, P32790; conditions: median of control spots 712
GST = conditions: median of control spots 978

| Binder | SPOT intensity (Pex13, P80667) | SPOT intensity (Rvs167, P39743) | SPOT intensity (Myo5, Q04439) | SPOT intensity (Bud14, P27637) | SPOT intensity (Cyk3, Q07533) | SPOT intensity (Cdc25, P04821) | SPOT intensity (Bzz1-2, P38822) | SPOT intensity (Abp1, P15891) | SPOT intensity (Hof1, Q05080) | SPOT intensity (Fus1, P11710) | SPOT intensity (Hse1, P38753) | SPOT intensity (Sla1-3, P32790) | SPOT intensity (Lsb1, P53281) | SPOT intensity (Sho1, P40073) | SPOT intensity (Myo3, P36006) | SPOT intensity (Lsb4, P32793) | SPOT intensity (Bem1-2, P29366) | SPOT intensity (Bbc1, P47068) | SPOT intensity (Bem1-1, P29366) | SPOT intensity (Nbp2, Q12163) | also measured |
| --- | --- | --- | --- | --- | --- | --- | --- | --- | --- | --- | --- | --- | --- | --- | --- | --- | --- | --- | --- | --- | --- |
| LLRRTIPKRPFYHVL | 12 | 31 | 0 | 13 | 0 | 44 | 13 | 18 | 52 | 14 | 43 | 245 | 139 | 26 | 0 | 2 | 108 | 184 | 0 | 100 | SPOT intensity (Boi1, P38041): 7; SPOT intensity (Lsb3, P43603): 2; SPOT intensity (Boi2, P39969): 2; SPOT intensity (Bzz1-1, P38822): 0; SPOT intensity (Pin3, Q06449): 0; SPOT intensity (Sla1-2, P32790): 0; SPOT intensity (GST): 1 |
| SRYRRPLTLLLLKPF | 16 | 7 | 0 | 15 | 3 | 236 | 4 | 37 | 15 | 15 | 15 | 15 | 7 | 78 | 8 | 2 | 10 | 140 | 0 | 28 | SPOT intensity (Boi1, P38041): 16; SPOT intensity (Lsb3, P43603): 2; SPOT intensity (Boi2, P39969): 0; SPOT intensity (Bzz1-1, P38822): 0; SPOT intensity (Pin3, Q06449): 2; SPOT intensity (Sla1-2, P32790): 1; SPOT intensity (GST): 0 |
| FFRRSELYLPNSSKA | 10 | 5 | 0 | 10 | 0 | 115 | 5 | 22 | 25 | 37 | 43 | 53 | 2 | 62 | 0 | 0 | 15 | 19 | 3 | 14 | SPOT intensity (Boi1, P38041): 3; SPOT intensity (Lsb3, P43603): 0; SPOT intensity (Boi2, P39969): 0; SPOT intensity (Bzz1-1, P38822): 1; SPOT intensity (Pin3, Q06449): 1; SPOT intensity (Sla1-2, P32790): 0; SPOT intensity (GST): 0 |
| LLGRKRPVMERVVDI | 110 | 5 | 6 | 3 | 0 | 9 | 4 | 28 | 0 | 0 | 9 | 4 | 4 | 74 | 10 | 27 | 0 | 1 | 0 | 0 | SPOT intensity (Boi1, P38041): 0; SPOT intensity (Lsb3, P43603): 4; SPOT intensity (Boi2, P39969): 1; SPOT intensity (Bzz1-1, P38822): 0; SPOT intensity (Pin3, Q06449): 61; SPOT intensity (Sla1-2, P32790): 5; SPOT intensity (GST): 0 |
